The values below are quoted from earlier work in patent publication US8759488B2, “High stability streptavidin mutant proteins” (Isis Innovation Limited, priority 2009, dated 2014).

Several values for one entry are separate records, joined by “and”; a condition that tells them apart may be missing. Equal values may be shown once.

B1: monomeric streptavidin: streptavidin subunit unable to tetramerise, e.g. with mutations T76R, V125R, V55T and L109T (protein)
chain: DPSKDSKAQVSAAEAGITGTWYNQLGSTFIVTAGADGALTGTYESAVGNAESRYTLTGRYDSAPATDGSGTALGWRVAWKNNYRNAHSATTWSGQYVGGAEARINTQWTLTSGTTEANAWKSTLRGHDTFTKVKPSAASIDAAKKAGVNNGNPLDAVQQ
For the molecule B1, the “half life for biotin” value (biotin) is “approximately 3 minutes”. Also, where the note is “free biotin”, the “off rate of biotin” value was 0.0034 s⁻¹ and 0.0041 s⁻¹.
